Like-named read-outs stand apart in the source and are kept apart here.
B1: F5 scFv (native purified soluble scFv) (scFv, not shown: small tags and cut ends)
scFv: QVQLVESGGGLVQPGGSLRLSCAASGFTFRSYAMSWVRQAPGKGLEWVSAISGRGDNTYYADSVKGRFTISRDNSKNTLYLQMNSLRAEDTAVYYCAKMTSNAFAFDYWGQGTLVTVSSGGGGSGGGGSGGGGSQSVLTQPPSVSGAPGQRVTISCTGSSSNIGAGYGVHWYQQLPGTAPKLLIYGNTNRPSGVPDRFSGFKSGTSASLAITGLQAEDEADYYCQSYDSSLSGWVFGGGTKLTVLG
notes: also called 3TF5; scFv-F5

Experiments:
[1] = target: ErbB2 on tumor cell lines (SKBR3, SK-OV-3, MCF7) (UniProt P04626); test: cell-based or functional assay
[2] = target: ErbB2 on tumor cell lines (SKBR3, SK-OV-3, MCF7) (UniProt P04626); test: 5.0 × 10^11 phage on about 1.0 × 10^5 SKBR3 cells at 37 C, surface bound phage eluted with low pH glycine, titered on E. coli TG1
[3] = target: ErbB2 on tumor cell lines (SKBR3, SK-OV-3, MCF7) (UniProt P04626)
[4] = target: T1, ErbB2 (form in the assay not stated) (UniProt P04626 23-1255); test: method not stated
T1 construct: also called c-erbB-2

[5] = target: T1, ErbB2 (form in the assay not stated); test: competition by flow cytometry, panel 'C1 phage binding': soluble scFv inhibits binding of C1 phage; % of maximal MFI

| Molecule | Lysed cell fraction (titer of internalized phage), SKBR3 cells [1] | titer of cell surface bound phage, 1st glycine wash [2] | titer of cell surface bound phage, 2nd glycine wash [2] | further results |
| --- | --- | --- | --- | --- |
| C6.5 diabody phage | 1.7e+07 phage titer | 1.8e+07 phage titer | 2.8e+06 phage titer | cells with internalized phage, confocal microscopy, SKBR3 cells [1]: 20 % of cells |
| C6.5 phage (anti-ErbB2 C6.5 scFv displayed on phage) | 6.8e+07 phage titer | 1.2e+07 phage titer | 5.2e+06 phage titer | – |
| C6.5cys scFv conjugated to liposomes | – | – | – | Total uptake of scFv-conjugated liposomes by SKBR3 cells [1]: 3.4; share of the liposome uptake that was internalized, SKBR3 cells [1]: 70% |
| irrelevant anti-Botulinum phage (scFv) | 600000 phage titer | – | – | titer of cell surface bound phage, 1st glycine wash [3]: 600000 phage titer; titer of cell surface bound phage, 2nd glycine wash [3]: 100000 phage titer |
| B1 | – | – | – | Kd [4]: 320 nM; IC50 (read off the curve) [5]: ~200 nM |
